The source of these data is US20200062828A1 (PANASONIC INTELLECTUAL PROPERTY MANAGEMENT, published 2020).

The target in experiment [1] is T1, VLP noro antigen derived from the norovirus GII/4, composed by associating 90 dimers of VP1 each including … (norovirus GII/4, UniProt P54635 1-539).
T1 construct: Virus-like particle; also called solid phase VLP
T1 chain: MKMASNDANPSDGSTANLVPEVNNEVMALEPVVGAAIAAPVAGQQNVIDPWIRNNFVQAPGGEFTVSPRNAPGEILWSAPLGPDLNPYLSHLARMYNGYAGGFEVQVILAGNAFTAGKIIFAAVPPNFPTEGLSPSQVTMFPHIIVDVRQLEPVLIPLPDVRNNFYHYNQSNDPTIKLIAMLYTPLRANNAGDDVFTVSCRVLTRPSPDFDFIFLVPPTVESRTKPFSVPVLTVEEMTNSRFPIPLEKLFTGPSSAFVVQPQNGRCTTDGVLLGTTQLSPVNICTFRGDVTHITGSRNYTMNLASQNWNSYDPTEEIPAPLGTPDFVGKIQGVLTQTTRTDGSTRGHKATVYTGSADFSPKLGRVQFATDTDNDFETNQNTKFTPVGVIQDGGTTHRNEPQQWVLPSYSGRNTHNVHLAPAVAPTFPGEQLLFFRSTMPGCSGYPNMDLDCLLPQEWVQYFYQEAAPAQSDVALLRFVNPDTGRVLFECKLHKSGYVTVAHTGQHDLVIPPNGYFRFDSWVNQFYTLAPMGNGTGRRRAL
Description: SPR (T200, CM3), VLP noro antigen immobilized, antibody as analyte.

The target of experiment [2] is T2, noro antigen (recombinant of the p-domain protein of the GII/4 norovirus (NSW-2012)) (GII/4 norovirus (NSW-2012), UniProt P54635 1-539).
T2 construct: Viral capsid protein antigen; also called antigen of the norovirus; recombinant p-domain protein
T2 chain: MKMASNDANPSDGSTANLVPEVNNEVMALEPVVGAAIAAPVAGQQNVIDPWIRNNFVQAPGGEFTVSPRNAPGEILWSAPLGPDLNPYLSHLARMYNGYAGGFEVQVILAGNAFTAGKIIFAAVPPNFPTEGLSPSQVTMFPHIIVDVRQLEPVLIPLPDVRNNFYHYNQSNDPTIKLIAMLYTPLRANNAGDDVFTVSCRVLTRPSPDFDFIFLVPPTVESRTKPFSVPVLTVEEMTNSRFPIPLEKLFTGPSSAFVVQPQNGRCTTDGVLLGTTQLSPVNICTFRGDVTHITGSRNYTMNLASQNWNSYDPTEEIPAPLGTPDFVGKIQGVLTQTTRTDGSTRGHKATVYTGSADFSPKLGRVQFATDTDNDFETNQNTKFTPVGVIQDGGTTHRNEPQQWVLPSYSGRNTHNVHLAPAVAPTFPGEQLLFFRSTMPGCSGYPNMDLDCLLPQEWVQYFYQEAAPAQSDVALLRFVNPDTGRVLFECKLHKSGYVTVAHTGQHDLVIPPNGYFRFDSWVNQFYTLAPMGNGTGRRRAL
As to the kind of experiment: SPR (T200, CM5), noro antigen immobilized, VHH as analyte added serially.

Experiment [3] has as its target T2, noro antigen (recombinant of the …). Description: SPR (T200), VHH immobilized, noro antigen as analyte added serially.
Experiment [4] has the same target. Description: SPR (T200, CM5), noro antigen immobilized, VHH as analyte, separate concentrations.

B1: VHH antibody including the amino acid sequence represented by SEQ ID NO: 39 (VHH)
VHH: QLQLVESGGGLVQAGGSLRLSCVASGFPFASSAMAWFRQAPGKEREFVASISYRGITTYYAQPVKGRFTMSRDNAKNTVYLQMNSLKPEDTAVYYCYAKSIWGNAYWGQGTQVTVSP
notes: also called Monovalent 65; not shown: C-terminal 3xFlag tag and His tag from the modified pET22b(+) vector
Usually Kd stands for the free concentration of one partner at which half of the binding sites on the other are occupied at equilibrium, for simple one-to-one binding. On to B1, for which the Kd amounted to 54.8 nM in experiment [1], 15.8 nM in experiment [2] and 15.9 nM in experiment [3].

B2: VHH antibody including the amino acid sequence represented by SEQ ID NO: 43 (VHH)
VHH: QLQLVESGGGLVQPGGSLRLSCAASGFTLDYYAIGWFRQAPGNEREFVAAISWNGGSTYYADSVKGRFTISRDNAKETVYLQMNSLKPEDTGVYYCNYRPQFGLGYNYWGQGTQVTVSS
notes: also called anti-noro antibody; not shown: C-terminal 3xFlag tag and His tag from the modified pET22b(+) vector
For B2, the Kd in experiment [4] was 5.45 nM; in experiment [3], 10.3 nM.

B3: dimer antibody (SEQ ID NO: 98) in which the structure domain of SEQ ID NO: 38 and the structure domain of SEQ ID NO: 39 are connected from N to C via a linker (VHH)
chain: QVQLVESGGGVVQTGGSLRLSCAASGSTFSIGAMGWYRQAPGKQRELVATVNRASRTIYADSVRGRFTISRDNAKNLVYLQMNNLKPEDTAVYYCNVIATSASGRGVTSTSWGQGSQVTVSSGGGGSGGGASGGGGSQLQLVESGGGLVQAGGSLRLSCVASGFPFASSAMAWFRQAPGKEREFVASISYRGITTYYAQPVKGRFTMSRDNAKNTVYLQMNSLKPEDTAVYYCYAKSIWGNAYWGQGTQVTVSPEPKTPKPQSASAA
notes: Single-chain tandem heterodimer of two VHH domains (38 then 39); also called Divalent 98
As usually defined, the koff is a measure of how fast the partners let go of each other. In general, kon refers to the rate constant with which the complex forms. High values mean fast association, low ones slow association. Regarding B3, in experiment [1], the Kd was 0.485 nM, the koff stood at 0.00198 s⁻¹ and the on-rate (kon) was determined as 4.08e+06 M⁻¹ s⁻¹.

B4: dimer antibody having two of the structural domains each having the amino acid sequence represented by SEQ ID NO: 38 (SEQ ID NO: 97) (VHH)
chain: QVQLVESGGGVVQTGGSLRLSCAASGSTFSIGAMGWYRQAPGKQRELVATVNRASRTIYADSVRGRFTISRDNAKNLVYLQMNNLKPEDTAVYYCNVIATSASGRGVTSTSWGQGSQVTVSSGGGGSGGGASGGGGSQVQLVESGGGVVQTGGSLRLSCAASGSTFSIGAMGWYRQAPGKQRELVATVNRASRTIYADSVRGRFTISRDNAKNLVYLQMNNLKPEDTAVYYCNVIATSASGRGVTSTSWGQGSQVTVSSEPKTPKPQSASAA
notes: also called Divalent 97
In experiment [1], B4 gave a Kd of 0.13 nM, a koff of 0.000302 s⁻¹ and an association rate constant (kon) of 2.32e+06 M⁻¹ s⁻¹.

B5: VHH antibody including the amino acid sequence represented by SEQ ID NO: 38 (VHH)
VHH: QVQLVESGGGVVQTGGSLRLSCAASGSTFSIGAMGWYRQAPGKQRELVATVNRASRTIYADSVRGRFTISRDNAKNLVYLQMNNLKPEDTAVYYCNVIATSASGRGVTSTSWGQGSQVTVSS
notes: Alpaca VHH expressed in E. coli; also called monomer antibody; not shown: C-terminal 3xFlag tag and His tag from the modified pET22b(+) vector
In experiment [1], B5 showed an equilibrium dissociation constant (Kd) of 149 nM, a dissociation rate constant (koff) of 0.0214 s⁻¹ and a kon of 144000 M⁻¹ s⁻¹. Moreover, the Kd in experiment [2] turned out to be 1.15 nM. Besides, the Kd in experiment [3] was 4.15 nM.

B6: dimer antibody (SEQ ID NO: 99) in which the structure domain of SEQ ID NO: 39 and the structure domain of SEQ ID NO: 38 are connected from N to C via a linker (VHH)
chain: QLQLVESGGGLVQAGGSLRLSCVASGFPFASSAMAWFRQAPGKEREFVASISYRGITTYYAQPVKGRFTMSRDNAKNTVYLQMNSLKPEDTAVYYCYAKSIWGNAYWGQGTQVTVSPGGGGSGGGASGGGGSQVQLVESGGGVVQTGGSLRLSCAASGSTFSIGAMGWYRQAPGKQRELVATVNRASRTIYADSVRGRFTISRDNAKNLVYLQMNNLKPEDTAVYYCNVIATSASGRGVTSTSWGQGSQVTVSSEPKTPKPQSASAA
notes: Single-chain tandem heterodimer of two VHH domains (39 then 38); also called Divalent 99
In experiment [1], B6 returned a Kd of 0.00947 nM, a koff of 0.000356 s⁻¹ and a kon of 3.75e+07 M⁻¹ s⁻¹.

B7: VHH antibody including the amino acid sequence represented by SEQ ID NO: 40 (VHH)
VHH: QLQLVEPGGGVVQPGGSLRLSCLASGSDFSLGAMGWYRQAPGKQRELVAIINRASWTRYADSVKGRFTISRDNSKNLVFLQMNNLKPDDTAVYYCNAIATSASGRGVTSTSWGQGSQVTVSS
notes: not shown: C-terminal 3xFlag tag and His tag from the modified pET22b(+) vector
Regarding B7, the Kd in experiment [2] amounted to 9.5 nM; in experiment [3] it was 9.57 nM.

B8: VHH antibody including the amino acid sequence represented by SEQ ID NO: 42 (VHH)
VHH: ELQLVESGGGAVHTGGSLRLSCAVSGRTDIRYAMGWFRQAPGREREFVAAISWNGDDTFYADSVKGRFTISRDNAKNAVSLQMDSLRPEDTAVYYCNARNSYAAFARAYWGQGTQVTVSS
notes: as for B2
Take B8: the Kd in experiment [4] amounted to 63.8 nM; in experiment [3], 13.1 nM.

B9: VHH antibody including the amino acid sequence represented by SEQ ID NO: 41 (VHH)
VHH: EVQLVESGGGLVQAGGSLRLSCAVSGRTSSRYVMGWVRQAPGKEREFLAAISWSAGYTFYRDSVKGRFTISRDNAKNTVYLQMNSLKPEDTAVYYCNADENGLGRKRGFGSWGQGTQVTVSS
notes: as for B2
As to B9, the Kd in experiment [4] was determined as 81.6 nM; in experiment [3], 4.98 nM.
